Experimental data published in patent US20220332804A1 (CSL INNOVATION, published 2022).
Positions count from the first letter of the chain named.

Legend:
Assay in all cases: SPR, antibody captured, C2 as analyte;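 also: biacore SPR at 37 °C, anti-C2 mAbs captured via goat anti-human IgG on CM5 chips, double-referenced sensorgrams fit to a 1:1 kinetic or steady-state model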
human C2 A470S = molecular target: T1, human C2 A470S (human, UniProt P06681 21-752)
T1 sequence: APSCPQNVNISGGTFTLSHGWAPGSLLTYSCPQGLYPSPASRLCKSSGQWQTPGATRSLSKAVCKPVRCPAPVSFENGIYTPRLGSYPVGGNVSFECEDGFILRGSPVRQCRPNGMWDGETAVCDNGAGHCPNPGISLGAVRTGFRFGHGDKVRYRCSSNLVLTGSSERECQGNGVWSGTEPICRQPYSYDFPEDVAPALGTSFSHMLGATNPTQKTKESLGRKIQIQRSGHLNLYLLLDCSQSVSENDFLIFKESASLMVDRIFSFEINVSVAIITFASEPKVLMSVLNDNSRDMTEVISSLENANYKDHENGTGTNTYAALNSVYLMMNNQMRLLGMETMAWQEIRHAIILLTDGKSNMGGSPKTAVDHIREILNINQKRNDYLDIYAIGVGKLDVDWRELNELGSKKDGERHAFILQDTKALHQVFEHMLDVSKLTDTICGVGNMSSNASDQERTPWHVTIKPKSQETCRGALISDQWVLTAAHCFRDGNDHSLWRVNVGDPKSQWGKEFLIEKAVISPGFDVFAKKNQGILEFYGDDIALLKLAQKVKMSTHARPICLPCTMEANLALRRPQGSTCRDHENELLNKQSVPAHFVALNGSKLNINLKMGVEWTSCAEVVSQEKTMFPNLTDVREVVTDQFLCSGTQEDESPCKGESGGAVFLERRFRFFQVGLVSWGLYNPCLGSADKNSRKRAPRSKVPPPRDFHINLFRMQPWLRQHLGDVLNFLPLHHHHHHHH

human C2 K485A = molecular target: T2, human C2 K485A (human, UniProt P06681 21-752)
T2 sequence: T1 sequence with S450A, K465A

human C2 Q489A = molecular target: T3, human C2 Q489A (human, UniProt P06681 21-752)
T3 sequence: T1 sequence with S450A, Q469A

human C2 K711A = molecular target: T4, human C2 K711A (human, UniProt P06681 21-752)
T4 sequence: T1 sequence with S450A, K691A

B1: RF16-226 (antibody, human IgG4 S228P, lambda)
heavy: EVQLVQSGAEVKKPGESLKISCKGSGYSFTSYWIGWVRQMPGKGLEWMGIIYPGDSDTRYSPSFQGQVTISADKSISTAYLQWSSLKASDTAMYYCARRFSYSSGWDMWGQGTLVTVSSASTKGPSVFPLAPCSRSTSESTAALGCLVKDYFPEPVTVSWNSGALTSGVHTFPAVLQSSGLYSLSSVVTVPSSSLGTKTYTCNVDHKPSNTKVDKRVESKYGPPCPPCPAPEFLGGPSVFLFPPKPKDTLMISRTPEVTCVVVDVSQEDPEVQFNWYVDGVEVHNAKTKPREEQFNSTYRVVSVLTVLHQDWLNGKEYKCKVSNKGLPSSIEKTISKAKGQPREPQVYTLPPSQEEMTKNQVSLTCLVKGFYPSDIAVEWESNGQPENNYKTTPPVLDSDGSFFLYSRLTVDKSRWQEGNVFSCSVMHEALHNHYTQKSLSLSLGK
light: SYELTQPPSVSVSPGQTARITCSGDALTSKYVAWYQQKSGLAPLLVIYEDTRRPSGIPAKFSGSSSGSVATLTISGAHGDDEADYYCYSTDASGHQRVFGGGTKLTVLSQPKAAPSVTLFPPSSEELQANKATLVCLISDFYPGAVTVAWKADGSPVKAGVETTKPSKQSNNKYAASSYLSLTPEQWKSHRSYSCQVTHEGSTVEKTVAPTECS
notes: pH-dependent anti-C2 antibody from a phage display library; also called WT
Kd (human C2 A470S): 7.8 nM
Kd (human C2 K485A): 12.5 nM
Kd (human C2 Q489A): 104 nM
Kd (human C2 K711A): 49.6 nM
